Assay results reported in US20240391959A1 (Bicycle, published 2024).
Starred links: 1 amine or outer side, 2 acyl side, 3 side chain; linkers in the order of their positions; H or OH if unused. Positions of bridges follow the written chain, without caps; N, C: chain ends. No end group written: not given here. TATB = O=C(C[*:1])N1CN(C(=O)C[*:2])CN(C(=O)C[*:3])C1

Experiments:
[1] = biological target: T1, Recombinant cynomolgus transferrin receptor 1 (TfR1), His6-tagged, a.a. 89-760 (cynomolgus, UniProt H9EXL1 89-760 (rhesus entry)); assay: SPR, TfR1 on chip; Table 2, geomean of n = 2
T1 construct: range 89-760; Bought, ACRO Biosystems TFR-C524a; also called Cyno TfR1; Cynomolgus TfR1; not shown: His6 tag
T1 sequence (chain, as listed by the source): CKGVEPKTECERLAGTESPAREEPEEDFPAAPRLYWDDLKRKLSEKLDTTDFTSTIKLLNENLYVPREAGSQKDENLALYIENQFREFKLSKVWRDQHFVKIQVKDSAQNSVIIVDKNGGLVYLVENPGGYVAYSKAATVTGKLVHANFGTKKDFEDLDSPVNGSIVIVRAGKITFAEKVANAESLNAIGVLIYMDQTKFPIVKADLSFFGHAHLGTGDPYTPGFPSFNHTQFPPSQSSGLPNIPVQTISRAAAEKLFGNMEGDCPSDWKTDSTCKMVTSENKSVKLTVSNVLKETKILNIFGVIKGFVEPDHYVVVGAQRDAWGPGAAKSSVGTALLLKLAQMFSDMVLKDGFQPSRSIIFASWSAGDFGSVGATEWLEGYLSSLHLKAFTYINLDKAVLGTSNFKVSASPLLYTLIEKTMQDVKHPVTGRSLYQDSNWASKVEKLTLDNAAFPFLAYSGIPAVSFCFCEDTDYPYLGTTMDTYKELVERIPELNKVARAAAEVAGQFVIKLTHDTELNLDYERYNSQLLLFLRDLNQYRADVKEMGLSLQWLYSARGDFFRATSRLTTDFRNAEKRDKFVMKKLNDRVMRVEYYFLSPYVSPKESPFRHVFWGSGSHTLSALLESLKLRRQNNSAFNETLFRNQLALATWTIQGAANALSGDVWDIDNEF

[2] = biological target: T2, Recombinant human transferrin receptor 1 (TfR1), His6-tagged, a.a. 89-760 (human, UniProt P02786 89-760); assay: SPR, TfR1 on chip; Table 2, geomean of n = 5
T2 construct: range 89-760; SPR used ACRO Biosystems CD1-H5243 (His6, a.a. 89-760); also called Human TfR1; CD71; not shown: His6 tag
T2 sequence (P02786 89-760 limits assumed): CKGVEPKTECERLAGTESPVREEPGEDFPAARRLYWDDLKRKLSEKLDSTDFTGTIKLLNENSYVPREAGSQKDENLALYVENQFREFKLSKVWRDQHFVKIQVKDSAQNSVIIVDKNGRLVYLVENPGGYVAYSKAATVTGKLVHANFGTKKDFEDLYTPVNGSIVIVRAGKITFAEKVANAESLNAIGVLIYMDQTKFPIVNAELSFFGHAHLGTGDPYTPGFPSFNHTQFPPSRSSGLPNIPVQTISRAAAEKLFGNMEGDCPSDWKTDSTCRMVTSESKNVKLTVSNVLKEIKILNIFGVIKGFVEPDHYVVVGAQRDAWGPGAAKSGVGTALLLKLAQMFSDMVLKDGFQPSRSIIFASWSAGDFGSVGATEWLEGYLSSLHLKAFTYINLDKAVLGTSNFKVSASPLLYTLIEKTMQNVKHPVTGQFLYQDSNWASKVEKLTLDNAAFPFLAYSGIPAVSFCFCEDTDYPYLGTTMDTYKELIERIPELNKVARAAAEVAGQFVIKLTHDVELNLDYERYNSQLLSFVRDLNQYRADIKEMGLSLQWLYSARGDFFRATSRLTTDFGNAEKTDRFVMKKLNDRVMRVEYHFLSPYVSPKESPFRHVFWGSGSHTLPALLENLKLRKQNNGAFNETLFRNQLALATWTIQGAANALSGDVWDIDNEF

Binder	Kd [1] [nM]	Kd [2] [nM]
ACPPDSWQGCISYCA (Cys Ci, Cii, Ciii on TATB scaffold) [BCY13989]	3440	–
ACSPDAHLGCISYCA (linker 2-10-14 via TATB) [BCY15468]	–	37.8
